Results: the supplement of paper PMC7877785
± gives the uncertainty stated by the source.

Assay: self-splicing fitness, log relative to wild type (ln ratio); higher = more splicing; Tetrahymena group I intron in knt gene, E. coli kanamycin selection, DiMSum; sequences stand for … in CUCUCU…GGAGGGAAAAGUUAUCAGGCAUGCACCUGGUAGCUAGUCUUUAAACCAAUAGAUUGCAUCGGUUUAAAAGGCAAGACCGUCAAAUUGCGGGAAAGGGGUCAACAGCCGUUCAGUACCAAGUCUCAGGGGAAACUUUGAGAUGGCCUUGCAAAGGGUAUGGUAAUAAGCUGACGGACAUGGUCCUAACCACGCAGCCAAGUCCUAAGUCAACAGAUCUUCUGUUGAUAUGGAUGCAGUUCACAGACUAAAUGUCGGUCGGGGAAGAUGUAUUCUUCUCAUAAGAUAUAGUCGGACCUCUCCUUAAUGGGAGCUAGCGGAUGAAGUGAUGCAACACUGGAGCCGCUGGGAACUAAUUUGUAUGCGAAAGUAUAUUGAUUAGUUUUGGAGUACUCGUGGUCG
Summary of the method: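 A randomised library covering all eight P1ex-region intron nucleotides was built with the intron in the knt kanamycin-resistance gene on pET-22b(+) and held in E. coli BL21(DE3). Cells were grown overnight at 37°C or 30°C on LB agar, with or without 25 μg/mL kanamycin, plus 100 μg/mL carbenicillin, 50 μM IPTG and 0.2% rhamnose, and pooled colonies were amplicon-sequenced on an Illumina HiSeq 2500. DiMSum fitness is the error-weighted combination of wild-type-normalised replicate fold changes, kanamycin versus none.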

| Sequence | self-splicing fitness (ln) (30 °C) | self-splicing fitness (ln) (37 °C) |
| --- | --- | --- |
| AGACAGCAAUAUUACGUACG | -1.22 ± 0.07 | -0.121 ± 0.094 |
| AGACAGCAAUAUUACGUCAA | -1.68 ± 0.1 | -1.35 ± 0.09 |
| AGACAGCAAUAUUACGUGCG | -0.833 ± 0.077 | -0.653 ± 0.083 |
| AGACAGCAAUAUUACGUGUG | -2 ± 0.063 | -1.44 ± 0.072 |
| AGAGAGCAAUAUUACGACGC | -2.54 ± 0.34 | -0.3 ± 0.28 |
| AGAGAGCAAUAUUACGAGGC | -2.09 ± 0.25 | – |
| AGAGAGCAAUAUUACGAUUC | -3.41 ± 0.35 | -1.24 ± 0.32 |
| AGAGAGCAAUAUUACGCAGG | -2.58 ± 0.13 | -3.21 ± 0.33 |
| AGAGAGCAAUAUUACGCGCU | -1.89 ± 0.35 | – |
| AGAGAGCAAUAUUACGCUGG | -3.07 ± 0.27 | -2.4 ± 0.32 |
| AGAGAGCAAUAUUACGGCCC | -1.82 ± 0.28 | -1.71 ± 0.48 |
| AGAGAGCAAUAUUACGGCUU | -1.65 ± 0.16 | -1.15 ± 0.25 |
| AGAGAGCAAUAUUACGGUCG | -3.33 ± 0.35 | -1.63 ± 0.35 |
| AGAGAGCAAUAUUACGUAGG | – | -2.16 ± 0.43 |
| AGAGAGCAAUAUUACGUGGG | -3.01 ± 0.17 | -2.71 ± 0.28 |
| AGAGAGCAAUAUUACGUGUG | -3.84 ± 0.16 | -3.07 ± 0.24 |
| AGAGAGCAAUAUUACGUUGG | -3.15 ± 0.14 | -2.76 ± 0.18 |
| AGAUAGCAAUAUUACGAACU | -0.83 ± 0.16 | 0.533 ± 0.17 |
| AGAUAGCAAUAUUACGACAC | -1.11 ± 0.12 | -0.486 ± 0.15 |
| AGAUAGCAAUAUUACGACUA | -1.03 ± 0.14 | -0.165 ± 0.13 |
| AGAUAGCAAUAUUACGAGAU | -3.02 ± 0.25 | -1.69 ± 0.27 |
| AGAUAGCAAUAUUACGAUGA | -1.5 ± 0.13 | -0.349 ± 0.097 |
| AGAUAGCAAUAUUACGCACU | -1.22 ± 0.1 | -0.664 ± 0.14 |
| AGAUAGCAAUAUUACGCAGA | -2.95 ± 0.18 | -2.32 ± 0.2 |
| AGAUAGCAAUAUUACGCGGA | -2.98 ± 0.13 | -0.482 ± 0.093 |
| AGAUAGCAAUAUUACGCGUU | -2.34 ± 0.14 | -0.0669 ± 0.13 |

| Sequence | self-splicing fitness (ln) (30 °C) | self-splicing fitness (ln) (37 °C) |
| --- | --- | --- |
| AGAUAGCAAUAUUACGCUAU | -3.58 ± 0.4 | -3.47 ± 0.24 |
| AGAUAGCAAUAUUACGGAGA | -1.91 ± 0.18 | -2.76 ± 0.38 |
| AGAUAGCAAUAUUACGGAGC | -3.24 ± 0.29 | -1.5 ± 0.28 |
| AGAUAGCAAUAUUACGGCCA | 0.117 ± 0.33 | -0.323 ± 0.26 |
| AGAUAGCAAUAUUACGGGCC | -1.68 ± 0.19 | -2.68 ± 0.36 |
| AGAUAGCAAUAUUACGGUAA | -1.79 ± 0.2 | -1.34 ± 0.19 |
| AGAUAGCAAUAUUACGGUAC | -3.91 ± 0.28 | -2.42 ± 0.22 |
| AGAUAGCAAUAUUACGGUCU | -2 ± 0.17 | -2.8 ± 0.22 |
| AGAUAGCAAUAUUACGUAUC | -2.64 ± 0.17 | -1.71 ± 0.18 |
| AGAUAGCAAUAUUACGUCCG | 0.235 ± 0.1 | -0.122 ± 0.11 |
| AGAUAGCAAUAUUACGUGUC | -3.36 ± 0.28 | -3.11 ± 0.27 |
| AGAUAGCAAUAUUACGUUAA | -2.88 ± 0.18 | -2.01 ± 0.18 |
| AGCAAGCAAUAUUACGAGUC | -3.5 ± 0.16 | -1.84 ± 0.14 |
| AGCAAGCAAUAUUACGAUAA | -2.16 ± 0.12 | 0.308 ± 0.11 |
| AGCAAGCAAUAUUACGAUCC | -1.8 ± 0.18 | 1.31 ± 0.25 |
| AGCAAGCAAUAUUACGCACA | -0.316 ± 0.082 | 0.365 ± 0.12 |
| AGCAAGCAAUAUUACGCAGC | -2.98 ± 0.27 | -2.1 ± 0.35 |
| AGCAAGCAAUAUUACGCAUA | -1.96 ± 0.14 | -1.06 ± 0.15 |
| AGCAAGCAAUAUUACGCGAC | -2.95 ± 0.25 | -2.35 ± 0.26 |
| AGCAAGCAAUAUUACGCGAU | -3.51 ± 0.37 | -0.149 ± 0.18 |
| AGCAAGCAAUAUUACGGACG | -0.404 ± 0.061 | -0.244 ± 0.086 |
| AGCAAGCAAUAUUACGGAUG | -2.27 ± 0.14 | -2.17 ± 0.17 |
| AGCAAGCAAUAUUACGGCUC | -4.6 ± 0.27 | -3.41 ± 0.4 |
| AGCAAGCAAUAUUACGGUCA | -0.46 ± 0.07 | 0.00074 ± 0.084 |
| AGCAAGCAAUAUUACGGUCC | -0.25 ± 0.07 | -0.276 ± 0.081 |
| AGCAAGCAAUAUUACGUAGG | -2.75 ± 0.1 | -2.1 ± 0.12 |

| Sequence | self-splicing fitness (ln) (30 °C) | self-splicing fitness (ln) (37 °C) |
| --- | --- | --- |
| AGCAAGCAAUAUUACGUCCG | -0.909 ± 0.12 | -0.462 ± 0.14 |
| AGCAAGCAAUAUUACGUUAA | -3.3 ± 0.17 | -1.68 ± 0.1 |
| AGCAAGCAAUAUUACGUUAC | -3.47 ± 0.23 | -2.38 ± 0.21 |
| AGCAAGCAAUAUUACGUUAG | -2.96 ± 0.17 | -2.24 ± 0.22 |
| AGCAAGCAAUAUUACGUUGG | -4.16 ± 0.14 | -3.18 ± 0.17 |
| AGCCAGCAAUAUUACGAAGA | -1.84 ± 0.26 | -1.46 ± 0.2 |
| AGCCAGCAAUAUUACGACCA | -1.61 ± 0.14 | -2.81 ± 0.3 |
| AGCCAGCAAUAUUACGAGGA | -3.35 ± 0.34 | -2.17 ± 0.27 |
| AGCCAGCAAUAUUACGAGGU | -3.51 ± 0.23 | -1.93 ± 0.21 |
| AGCCAGCAAUAUUACGAUCC | -2.27 ± 0.15 | -1.02 ± 0.19 |
| AGCCAGCAAUAUUACGCCCG | -1.94 ± 0.47 | -1.61 ± 0.36 |
| AGCCAGCAAUAUUACGCGAA | -0.797 ± 0.26 | -2.79 ± 0.38 |
| AGCCAGCAAUAUUACGCGCU | -3.07 ± 0.24 | -2.15 ± 0.25 |
| AGCCAGCAAUAUUACGCUCG | -1.78 ± 0.18 | -1.58 ± 0.18 |
| AGCCAGCAAUAUUACGCUUA | -2.09 ± 0.11 | -1.4 ± 0.093 |
| AGCCAGCAAUAUUACGCUUU | -2.84 ± 0.089 | -0.852 ± 0.086 |
| AGCCAGCAAUAUUACGGCCC | – | -0.0646 ± 0.48 |
| AGCCAGCAAUAUUACGGCGC | -1.51 ± 0.13 | -0.844 ± 0.16 |
| AGCCAGCAAUAUUACGGUCG | -0.387 ± 0.078 | -0.328 ± 0.092 |
| AGCCAGCAAUAUUACGUAAU | -1.71 ± 0.11 | -0.608 ± 0.12 |
| AGCCAGCAAUAUUACGUACU | -0.0754 ± 0.072 | 0.219 ± 0.086 |
| AGCCAGCAAUAUUACGUAGA | -2.62 ± 0.1 | -1.84 ± 0.15 |
| AGCCAGCAAUAUUACGUCGA | -3.17 ± 0.17 | -2.88 ± 0.18 |
| AGCCAGCAAUAUUACGUGCA | -0.689 ± 0.068 | 0.0293 ± 0.087 |
